The text below walks through data of patent US5336488A, “Method of treating or preventing mastitis in animals with involuting mammary glands by administering recombinant cytokines” (American Cyanamid Company, priority 1992, dated 1994).

A short description of this series: Milk production in lactating glands after intramammary infusion or intramuscular injection. In kind it is in vivo, bovine (lactating dairy cows). As to conditions: for decrease of milk production: FIG. 3A. The protocol: FIGS. 3(A-I): Milk Production After Intramammary Infusion or Intramuscular Injection of r-BoIL-2 into Lactating Dairy Cows
Mean milk production in kilograms +/- Standard Error is recorded for 8 lactating dairy cows after intramammary infusion of r-BoIL-2 or no treatment. Data is shown as a percentage of the average milk production (Standard Deviation) compared to the first five days prior to Treatment (mean for 100% production level ). Production after r-BoIL-2 intramammary infusion with total dosing amounting to 4.5 mg or 13.5 mg in quarters infected with S. aureaus is compared to infected, untreated cows for a 6 day time period, panel A. Similarly, production is also followed in 7 lactating injections of r-BoIL-2 at 2.5 μg/kg/day for 5 days and compared to 3 normal PBS injected controls, panel B. All cows are in mid to late stages of their second or third lactation at the time of r-BoIL-2 therapy. All effects on milk production are transient, returning to pre-treatment levels within 96 hours after cessation of treatment.
In vivo measurement of daily milk production is also monitored for both intramammary infusions and intramuscular injection. Cows are milked morning and evening and the milk weighed and recorded in total kilograms per day. The total dose of IL-2 administered per cow ranges from 2 to 96 mg. Single or multiple intramammary infusions of IL-2 have variable effects on individual animal's milk production based upon the total dose of r-BoIL-2 administered per day, FIG. 3 A (INTRAMAMMARY). Production decreases as much as 30-40% by the third infusion in the high dose animals (13.5 mg), whereas only a 12% decrease is observed at the 4.5 mg dose (not statistically different from time 0 production or control animals). […] This induction would be of great significance to assist in the morphological changes required during early lactation and serves to accelerate the protective mechanisms.

Some results are limits rather than exact numbers.

B1: recombinant bovine interleukin-2 (protein, UniProt P05016 21-155, looked up)
Interleukin-2: APTSSSTGNTMKEVKSLLLDLQLLLEKVKNPENLKLSRMHTFDFYVPKVNATELKHLKCLLEELKLLEEVLNLAPSKNLNPREIKDSMDNIKRIVLELQGSETRFTCEYDDATVNAVEFLNKWITFCQSIYSTMT
notes: recombinant bovine interleukin-2, obtained from IMMUNEX Corp. Seattle, WA
For B1, the “time to return of milk production to pre-treatment levels after cessation of treatment” value (intramammary or intramuscular r-BoIL-2) is no more than 96 h. For the same molecule, the “decrease of milk production” value runs as follows: (intramammary, 4.5 mg, not statistically different from time 0 or control) 12%; (intramammary, 13.5 mg, by the third infusion) 30-40%. Besides, the “effect on milk production” value (intramammary, total dose less than 4.5 mg) was “No statistically significant effect on milk production”.
